Experimental data from the supplement of paper PMC11246515.
± gives the standard deviation of the averaged measurements.

Experiment: total protein half-life in vivo (active degradation + dilution); higher = more stable protein
[1] = E. coli NCM3722 delta-clpP, growth: N-lim chemostat, doubling time 6 h
[2] = E. coli NCM3722 delta-hslV, growth: N-lim chemostat, doubling time 6 h
[3] = E. coli NCM3722 delta-lon, growth: N-lim chemostat, doubling time 6 h
[4] = E. coli NCM3722 delta-smpB, growth: N-lim chemostat, doubling time 6 h
[5] = wild type E. coli NCM3722, growth: C-lim chemostat, doubling time 3 h
[6] = wild type E. coli NCM3722, growth: C-lim chemostat, doubling time 6 h
[7] = wild type E. coli NCM3722, growth: C-lim chemostat, doubling time 12 h
[8] = wild type E. coli NCM3722, growth: N-lim chemostat, doubling time 6 h
[9] = wild type E. coli NCM3722, growth: N-lim chemostat, doubling time 12 h
[10] = wild type E. coli NCM3722, growth: P-lim chemostat, doubling time 6 h
[11] = wild type E. coli NCM3722, growth: P-lim chemostat, doubling time 12 h
[12] = E. coli NCM3722 delta-clpP delta-lon delta-hslV, growth: N-lim chemostat, doubling time 6 h

Row | Sequence | total protein half-life in vivo [1] | total protein half-life in vivo [2] | total protein half-life in vivo [3] | total protein half-life in vivo [4] | total protein half-life in vivo [5] | total protein half-life in vivo [6] | total protein half-life in vivo [7] | total protein half-life in vivo [8] | total protein half-life in vivo [9] | total protein half-life in vivo [10] | total protein half-life in vivo [11] | total protein half-life in vivo [12]
1 | MKAIDNQIRNISSSHQDKHSDKVNSHQHHGKVDKTHRAKIVEFDKLDNDSQIDNDFGLHIIYFLQHGHWKVNDRSHQMEKVWFYNSEPSIDIQEYNRFADNTTDTFIFTIIPDNNHVLKLSSPITVTVECKGGYYFINSSGDKSDIIYKVDGLSIIARNFFTLLSGNFKPDWRWDVSKETFTKEKFDSYVKSVFSKIDFYKQCGVINPQNANTAYFGDTDGRVGAVLYALLVSGHIGIREKGWSLLCELLKHEEMASSAYKHKNNKVLYDLLNTRDMILNELHQHVFLKDDAITPCIFLGDHTGDRFSTIFGDKYILTLLNSMRNMEGNKDSRINKNVVVLAGNHEINFNGNYTARLANHKLSAGDTYNLIKTLDVCNYDSERQVLTSHHGIIRDEEKKCYCLGALQVPFNQMKNPTDPEELANIFNKKHKEHMDDPLFHLIRSNTLKPTPVYANYFDNTTDFRPARERIFICGETLKGEDPSKYIRQKYGHHGPGVDHNQQFDNGIMGLNSLKEARDKNNKIIYSSGLSCFQLH | 2.18 ± 0.21 h | 2.35 ± 0.097 h | 2.82 h | 2.53 h | 2.6 ± 0.029 h | 4.34 ± 0.27 h | 6 h | 2.27 ± 0.28 h | 3.75 h | 5.32 ± 0.097 h | 8.76 ± 0.24 h | –
2 | MKAKAILLASVLLVGCQSTGNVQQHAQSLSAAGQGEAAKFTSQARWMDDGTSIAPDGDLWAFIGDELKMGIPENDRIREQKQKYLRNKSYLHDVTLRAEPYMYWIAGQVKKRNMPMELVLLPIVESAFDPHATSGANAAGIWQIIPSTGRNYGLKQTRNYDARRDVVASTTAALNMMQRLNKMFDGDWLLTVAAYNSGEGRVMKAIKTNKARGKSTDFWSLPLPQETKQYVPKMLALSDILKNSKRYGVRLPTTDESRALARVHLSSPVEMAKVADMAGISVSKLKTFNAGVKGSTLGASGPQYVMVPKKHADQLRESLASGEIAAVQSTLVADNTPLNSRVYTVRSGDTLSSIASRLGVSTKDLQQWNKLRGSKLKPGQSLTIGAGSSAQRLANNSDSITYRVRKGDSLSSIAKRHGVNIKDVMRWNSDTANLQPGDKLTLFVKNNNMPDS [P0AEZ7] | – | – | – | – | – | – | – | – | – | – | – | 3.87 ± 0.74 h
3 | MKALTYHGPHHVQVENVPDPGVEQADDIILRITATAICGSDLHLYRGKIPQVKHGDIFGHEFMGEVVETGKDVKNLQKGDRVVIPFVIACGDCFFCRLQQYAACENTNAGKGAALNKKQIPAPAALFGYSHLYGGVPGGQAEYVRVPKGNVGPFKVPPLLSDDKALFLSDILPTAWQAAKNAQIQQGSSVAVYGAGPVGLLTIACARLLGAEQIFVVDHHPYRLHFAADRYGAIPINFDEDSDPAQSIIEQTAGHRGVDAVIDAVGFEAKGSTTETVLTNLKLEGSSGKALRQCIAAVRRGGIVSVPGVYAGFIHGFLFGDAFDKGLSFKMGQTHVHAWLGELLPLIEKGLLKPEEIVTHYMPFEEAARGYEIFEKREEECRKVILVPGAQSAEAAQKAVSGLVNAMPGGTI | – | 4.446 ± 0.011 h | 4.83 ± 0.24 h | 3.69 ± 2.5 h | – | 0.447 h | 10.2 h | 4.75 ± 0.35 h | 7.88 ± 0.2 h | 4.4 ± 0.32 h | 13.1 ± 3.3 h | 5.38 ± 0.18 h
4 | MKAVSRVHITPHMHWDREWYFTTEESRILLVNNMEEILCRLEQDNEYKYYVLDGQTAILEDYFAVKPENKDRVKKQVEAGKLIIGPWYTQTDTTIVSAESIVRNLMYGMRDCLAFGEPMKIGYLPDSFGMSGQLPHIYNGFGITRTMFWRGCSERHGTDKTEFLWQSSDGSEVTAQVLPLGYAIGKYLPADENGLRKRLDSYFDVLEKASVTKEILLPNGHDQMPLQQNIFEVMDKLREIYPQRKFVMSRFEEVFEKIEAQRDNLATLKGEFIDGKYMRVHRTIGSTRMDIKIAHARIENKIVNLLEPLATLAWTLGFEYHHGLLEKMWKEILKNHAHDSIGCCCSDKVHREIVARFELAEDMADNLIRFYMRKIADNMPQSDADKLVLFNLMPWPREEVINTTVRLRASQFNLRDDRGQPVPYFIRHAREIDPGLIDRQIVHYGNYDPFMEFDIQINQIVPSMGYRTLYIEANQPGNVIAAKSDAEGILENAFWQIALNEDGSLQLVDKDSGVRYDRVLQIEESSDDGDEYDYSPAKEEWVITAANAKPQCDIIHEAWQSRAVIRYDMAVPLNLSERSARQSTGRVGVVLVVTLSHNSRRIDVDINLDNQADDHRLRVLVPTPFNTDSVLADTQFGSLTRPVNDSAMNNWQQEGWKEAPVPVWNMLNYVALQEGRNGMAVFSEGLREFEVIGEEKKTFAITLLRGVGLLGKEDLLLRPGRPSGIKMPVPDSQLRGLLSCRLSLLSYTGTPTAAGVAQQARAWLTPVQCYNKIPWDVMKLNKAGFNVPESYSLLKMPPVGCLISALKKAEDRQEVILRLFNPAESATCDATVAFSREVISCSETMMDEHITTEENQGSNLSGPFLPGQSRTFSYRLA | – | – | – | 1.754 ± 0.011 h | – | – | – | – | 3.4 h | – | – | 6.07 h
5 | MKCPVCHQGEMVSGIKDIPYTFRGRKTVLKGIHGLYCVHCEESIMNKEESDAFMAQVKAFRASVNAETVAPEFIVKVRKKLSLTQKEASEIFGGGVNAFSRYEKGNAQPHPSTIKLLRVLDKHPELLNEIR | 1.229 ± 0.0039 h | 1.01 h | 3.01 ± 0.085 h | 0.847 ± 0.046 h | 0.559 ± 0.062 h | 1.07 ± 0.12 h | 1.23 h | 0.993 h | 1.08 h | 1.13 h | 1.6 ± 0.84 h | 4.78 ± 0.28 h
6 | MKCSWREGNKIQLLENGEQYYPAVFKAIGEAQERIILETFIWFEDDVGKQLHAALLAAAQRGVKAEVLLDGYGSPDLSDEFVNELTAAGVVFRYYDPRPRLFGMRTNVFRRMHRKIVVIDARIAFIGGLNYSAEHMSSYGPEAKQDYAVRLEGPIVEDILQFELENLPGQSAARRWWRRHHKAEENRQPGEAQVLLVWRDNEEHRDDIERHYLKMLTQARREVIIANAYFFPGYRFLHALRKAARRGVRIKLIIQGEPDMPIVRVGARLLYNYLVKGGVQVFEYRRRPLHGKVALMDDHWATVGSSNLDPLSLSLNLEANVIIHDRHFNQTLRDNLNGIIAADCQQVDETMLPKRTWWNLTKSVLAFHFLRHFPALVGWLPAHTPRLAQVDPPAQPTMETQDRVETENTGVKP [P0AA84] | 4.47 ± 0.2 h | 3.731 ± 0.026 h | 4.02 ± 0.65 h | 3.99 ± 0.16 h | 2.78 ± 0.092 h | 5.37 ± 2.1 h | 5.9 ± 1.9 h | 3.75 ± 0.25 h | 6.19 ± 0.53 h | 5.17 ± 1.5 h | 9.94 ± 4.7 h | 5.09 ± 0.17 h
7 | MKDKVYKRPVSILVVIYAQDTKRVLMLQRRDDPDFWQSVTGSVEEGETAPQAAMREVKEEVTIDVVAEQLTLIDCQRTVEFEIFSHLRHRYAPGVTRNTESWFCLALPHERQIVFTEHLAYKWLDAPAAAALTKSWSNRQAIEQFVINAA [P0AFC0] | > 8 h | – | 3.07 h | 2.07 h | – | > 8 h | 4.68 ± 0.41 h | 2.22 ± 0.26 h | 3.45 h | 2.75 ± 0.2 h | – | 3.93 h
